Target: T1, dog iRhom2 full length wild type C-terminally tagged with 3 consecutive copies of the T7 epitope (dog, UniProt Q00M95 1-827)
T1 construct: whole, on cells; also called dog-iR2-FL-WT-T7; expressed by MEF-DKO-Dog-iR2-FL-WT-T7 cells
T1 sequence: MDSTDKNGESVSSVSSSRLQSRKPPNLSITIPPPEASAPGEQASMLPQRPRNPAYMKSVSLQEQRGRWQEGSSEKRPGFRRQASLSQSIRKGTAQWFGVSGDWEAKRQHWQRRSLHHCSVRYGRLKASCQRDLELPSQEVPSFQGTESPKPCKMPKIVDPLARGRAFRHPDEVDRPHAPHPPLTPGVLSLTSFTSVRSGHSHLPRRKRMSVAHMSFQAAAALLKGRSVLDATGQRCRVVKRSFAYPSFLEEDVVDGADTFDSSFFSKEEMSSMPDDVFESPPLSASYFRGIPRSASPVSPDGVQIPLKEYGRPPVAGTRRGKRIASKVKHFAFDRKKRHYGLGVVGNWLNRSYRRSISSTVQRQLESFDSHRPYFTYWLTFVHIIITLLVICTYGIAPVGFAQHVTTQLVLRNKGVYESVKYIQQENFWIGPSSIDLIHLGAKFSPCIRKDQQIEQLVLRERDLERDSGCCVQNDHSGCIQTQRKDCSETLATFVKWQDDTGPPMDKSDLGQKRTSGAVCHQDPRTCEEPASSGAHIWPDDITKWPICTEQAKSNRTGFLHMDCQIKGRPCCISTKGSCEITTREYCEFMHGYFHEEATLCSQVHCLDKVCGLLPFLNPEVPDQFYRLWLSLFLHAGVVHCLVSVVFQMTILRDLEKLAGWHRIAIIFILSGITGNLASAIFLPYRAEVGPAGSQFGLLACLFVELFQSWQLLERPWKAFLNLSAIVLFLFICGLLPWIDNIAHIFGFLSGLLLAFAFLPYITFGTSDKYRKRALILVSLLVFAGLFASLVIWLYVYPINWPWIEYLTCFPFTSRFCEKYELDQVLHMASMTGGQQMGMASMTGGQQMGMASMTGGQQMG
Experiment: FACS on MEF-DKO-Dog-iR2-FL-WT-T7 cells
Protocol: In brief, immortalized MEF-DKO-EV control cells, MEF-DKO-rhesus-iR2-FL-WT-T7 cells, MEF-DKO-cyno-iR2-FL-WT-T7 cells, MEF-DKO-dog-iR2-FL-WT-T7 cells and MEF-DKO-rabbit-iR2-FL-WT-T7 cells, as well as their respective iRhom1 counterparts, were harvested with 10 mM EDTA in PBS, washed and resuspended in FACS buffer (PBS, 3% FBS, 0.05% sodium azide), and seeded in Nunc U-bottom 96-well plates (Thermo Fisher Scientific, USA) at approximately 3×10⁵ cells per well. To pellet cells and remove supernatants, the plates were centrifuged at 1,500 rpm and 4° C. for 3 minutes. For primary staining, cells were resuspended in 100 μl per well of either FACS buffer alone (controls), mouse monoclonal anti-T7 IgG (Merck Millipore, USA) at 3 μg/ml FACS buffer or the antibodies of the invention also at 3 μg/ml FACS buffer and incubated on ice for 1 hour. Afterwards, plates were centrifuged at 1,500 rpm and 4° C. for 3 minutes and washed twice with 200 μl per well of FACS buffer. For secondary staining of previous anti T7 staining, cells were spun down and resuspended in 100 μl per well of PE-conjugated goat anti-mouse IgG F(ab′)2 detection fragment (Dianova, Germany) diluted 1:100 in FACS buffer. […] Finally, cells were resuspended in 150 μl per well of FACS buffer and analyzed using a BD Accuri™ C6 Plus flow cytometer (Becton Dickinson, Germany).

B1: humanized antibody 16-B-03 (antibody, V domains shown)
VH: QVTLRESGPALVKPTQTLTLTCTFSGFSLSTFALGVGWIRQPPGKALEWLAHIWWDDDKYYNPALKSRLTISKDTSKNQVVLTITNMDPVDTATYYCARITTYYYGMDYWGQGTLVTVSS
VL: EIVMTQSPDFQSVTPKEKVTITCRASQSIGNHLHWYQQKPDASPKLLIKYASQSISGVPSRFSGSGSGTDFTLTINSLEAEDAATYFCQQSYQWPLTFGQGTKLEIK
notes: Tested as whole humanized antibody produced in CHO cells and detected with anti-human IgG; the general methods speak of human IgG1/Kappa; also called clone 16-B-03
Question: Does B1 bind?
Answer: Result: binds

Reference: patent US20240166767A1 (SCIRHOM, published 2024)
